Ends that are not written are not given here.
Columns and labels:
[1] = tested on: Lactobacillus sakei (NBRC15893); test: Wide pH-range stability test (spot-on-lawn antimicrobial activity after incubation in buffer); format: physicochemical; set-up: key: A: Good activity; B: Slight influence on activity; C: No activity; conditions: ten times the lowest concentration of Table 3, A = spot diameter 80% or more of control in water
Description: Antimicrobial activity of the antimicrobial peptide was evaluated by a spot-on-lawn method that involved spotting 10 µL of a test liquid 13 on the test bacteria (lawn) (on a soft agar medium 11) (Fig. 1). As the test bacteria, Lactobacillus sakei (NBRC15893) was used. The specific procedure is as follows. Firstly, the test bacteria that were cultured overnight were mixed and diluted with Lactobacilli AOAC agar (soft agar medium 11) in a density of 4×10^7 CFU/mL, and was spread over an MRS plate containing 2% agar (an agar medium 12). Test liquid 13 was spotted thereon, and incubated overnight at 30°C, followed by evaluation of the size of a growth inhibition circle 14 (Fig. 1). It can be determined that the larger the growth inhibition circle, the higher the antimicrobial activity. The fraction with highest antimicrobial activity as determined in the antimicrobial activity test was regarded as a purified active fraction and used in Experiment 4 and Experiment 5 described below. For the polypeptides as set forth in SEQ ID NOs: 1 to 5, 13, and 14 in Table 3, evaluation was carried out to see if they had antimicrobial activity over a wide range of pH. As a Comparative Example, a commercially available nisin A (manufactured by Sigma-Aldrich) was used. Firstly, each peptide was dissolved in the following buffer to prepare a solution of a concentration ten times the lowest concentration specified in Table 3: sodium phosphate buffer (50 mM, pH4), 1x phosphate buffer saline (pH7.4), ammonium chloride-ammonia buffer (50 mM, pH10.0). […] Antimicrobial activity was evaluated based on the size of the spot (the size of the growth inhibition circle). When the size of the spot was equivalent to that of the control (when the diameter of the spot was 80% or more of the control), it was rated as A, and when the size was relatively small but antimicrobial activity was still detected, it was rated as B. When the growth inhibition circle was not observed, it was rated as C. It can be determined that the peptides rated as A or B are stable at the test pHs. […]

[2] = tested on: Lactobacillus sakei (NBRC15893); test: Thermal stability test (spot-on-lawn antimicrobial activity after heat treatment); format: physicochemical; set-up: key: A: Good activity; B: Slight influence on activity; C: No activity; conditions: in water, ten times the lowest concentration of Table 3, A = spot diameter 80% or more of control with no heat treatment
Description: Antimicrobial activity of the antimicrobial peptide was evaluated by a spot-on-lawn method that involved spotting 10 µL of a test liquid 13 on the test bacteria (lawn) (on a soft agar medium 11) (Fig. 1). As the test bacteria, Lactobacillus sakei (NBRC15893) was used. The specific procedure is as follows. Firstly, the test bacteria that were cultured overnight were mixed and diluted with Lactobacilli AOAC agar (soft agar medium 11) in a density of 4×10^7 CFU/mL, and was spread over an MRS plate containing 2% agar (an agar medium 12). Test liquid 13 was spotted thereon, and incubated overnight at 30°C, followed by evaluation of the size of a growth inhibition circle 14 (Fig. 1). It can be determined that the larger the growth inhibition circle, the higher the antimicrobial activity. The fraction with highest antimicrobial activity as determined in the antimicrobial activity test was regarded as a purified active fraction and used in Experiment 4 and Experiment 5 described below. For the polypeptides as set forth in SEQ ID NOs: 1 to 5, 13, and 14 in Table 3, evaluation was carried out to see if they had antimicrobial activity after heat treatment. As a Comparative Example, a commercially available nisin A (manufactured by Sigma-Aldrich) was used. Firstly, each peptide was dissolved in water to prepare a solution of a concentration ten times the lowest concentration specified in Table 3. The test solution thus prepared was subjected to heat treatment at 80°C for 30 minutes, or at 100°C for 30 minutes, or at 121°C for 15 minutes. […] Antimicrobial activity was evaluated based on the size of the spot (the size of the growth inhibition circle); when the size of the spot was equivalent to that of the control (when the diameter of the spot was 80% or more of the control), it was rated as A, and when the size was relatively small but activity was still detected, it was rated as B. When the spot was not observed, it was rated as C. It can be determined that the peptides rated as A or B are stable at the test temperatures. […]

[3] = tested on: Staphylococcus aureus; test: Antimicrobial activity test in liquid culture (growth by OD630); format: cell-based; set-up: key: +: Antimicrobial activity observed; -: No antimicrobial activity observed; conditions: Test conc. 25 µM; culturing 24 to 48 hours
Description: (§1) As a Comparative Example, a commercially available nisin A (manufactured by Sigma-Aldrich) was used. Firstly, each peptide was dissolved in MRS medium to prepare a solution of a concentration of 20 µM to 1000 µM. From the resultant, 10 µl was taken and mixed with various test bacteria and 90 µl of medium intended for culturing the test bacteria, followed by culturing for 24 hours to 48 hours. After culturing, OD630 was measured to check the number of bacteria. When OD630 increased or turbidity was visually observed as compared to the culture liquid before culturing, it can be determined that the test bacteria had grown. […] In the "SEQ ID NO or substance name of peptide" section in Table 5, each of "SEQ ID NO: 3 & SEQ ID NO: 4" and "SEQ ID NO: 13 & SEQ ID NO: 14" means that a combination of the two types of peptides were used in equimolar amounts. The results in Table 5 indicate that the polypeptides as set forth in SEQ ID NOs: 1 to 5, 13, and 14 were effective against gram-positive bacteria and some of these polypeptides were effective against gram-negative bacteria such as E. coli and fungi such as C. albicans.

[4] = tested on: Streptococcus uberis; test: as above; format: cell-based; set-up: key: +: Antimicrobial activity observed; -: No antimicrobial activity observed; conditions: Test conc. 25 µM; culturing 24 to 48 hours
Description: as §1

[5] = tested on: Candida albicans; test: as above; format: cell-based; set-up: key: +: Antimicrobial activity observed; -: No antimicrobial activity observed; conditions: Test conc. 25 µM; culturing 24 to 48 hours
Description: as §1

[6] = tested on: Lactobacillus sakei; test: as above; format: cell-based; set-up: key: +: Antimicrobial activity observed; -: No antimicrobial activity observed; conditions: Test conc. 25 µM; culturing 24 to 48 hours
Description: as §1

[7] = tested on: Escherichia coli; test: as above; format: cell-based; set-up: key: +: Antimicrobial activity observed; -: No antimicrobial activity observed; conditions: Test conc. 25 µM; culturing 24 to 48 hours
Description: as §1

Substance: nisin A (ITSISLCTPGCKTGALMGCNMKTATCHCSIHVSK; thioether (positions not given here); not fully specified (some residues, bridges); also: lantibiotic: thioether rings and dehydro residues not placed; UniProt P13068 24-57, looked up) [antimicrobial peptide produced by Lactococcus lactis]
- pH Stability pH7 ([1]; 1x phosphate buffer saline (pH7.4), 27°C for 24 hours): C
- pH Stability pH10 ([1]; ammonium chloride-ammonia buffer 50 mM pH10.0, 27°C for 24 hours): C
- pH Stability pH4 ([1]; sodium phosphate buffer 50 mM pH4, 27°C for 24 hours): A
- Thermostability 80°C ([2]; 80°C for 30 minutes): C
- Thermostability 100°C ([2]; 100°C for 30 minutes): C
- Thermostability 121°C ([2]; 121°C for 15 minutes (autoclave)): C
- Antimicrobial activity, test bacteria Staphylococcus aureus [3]: +
- Antimicrobial activity, test bacteria Streptococcus uberis [4]: +
- Antimicrobial activity, test bacteria Candida albicans [5]: -
- Antimicrobial activity, test bacteria Lactobacillus sakei [6]: +
- Antimicrobial activity, test bacteria Escherichia coli [7]: -

Source: patent EP4644549A1, “ANTIMICROBIAL PEPTIDE AND METHOD FOR PRODUCING SAME” (Sumitomo Chemical Company, Limited, priority 2022, dated 2025)
